Measured values published in PMC2871789, “Characterization of the Interaction and Cross-Regulation of Three Mycobacterium tuberculosis RelBE Modules”.

Legend:
RelJ;RelK = RelJ;RelK (Mycobacterium tuberculosis …, UniProt P9WF25;P9WF09 1-91;1-85, |); experiment: EMSA; 1.8-15 uM titration; conditions: protein: recombinant;recombinant; tags: His or GST;His or GST; label: 5'-32P; blunt
RelJ = target: T1, RelJ (Mycobacterium tuberculosis H37Rv, UniProt P9WF25 1-91); experiment: EMSA; 7.5 uM RelJ alone; conditions: protein: recombinant; tags: His or GST; chain copies: 2; label: 5'-32P; blunt
T1 sequence: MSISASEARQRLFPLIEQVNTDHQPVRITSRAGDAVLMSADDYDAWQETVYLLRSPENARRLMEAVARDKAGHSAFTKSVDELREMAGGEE

RelB;RelE = target: T2, RelB;RelE (Mycobacterium tuberculosis …, UniProt O50462;O50461 1-89;1-97, |); experiment: EMSA; 1.8-15 uM titration; conditions: protein: recombinant;recombinant; tags: His (modified pET28a);His or GST; chain copies: 2;2; label: 5'-32P; blunt
T2 sequence 1: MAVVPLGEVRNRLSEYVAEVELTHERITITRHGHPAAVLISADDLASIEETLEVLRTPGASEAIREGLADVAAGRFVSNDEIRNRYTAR
T2 sequence 2: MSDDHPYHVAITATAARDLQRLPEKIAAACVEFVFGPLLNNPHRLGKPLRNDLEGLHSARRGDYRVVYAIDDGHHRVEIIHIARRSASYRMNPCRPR

RelF;RelG = target: T3, RelF;RelG (Mycobacterium tuberculosis …, UniProt O33347;O33348 1-93;1-87, |); experiment: EMSA; conditions: protein: recombinant;recombinant; tags: His or GST;His or GST; label: 5'-32P; blunt
T3 sequence 1: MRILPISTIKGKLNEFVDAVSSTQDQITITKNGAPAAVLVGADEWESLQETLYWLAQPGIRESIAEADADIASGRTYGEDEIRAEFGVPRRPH
T3 sequence 2: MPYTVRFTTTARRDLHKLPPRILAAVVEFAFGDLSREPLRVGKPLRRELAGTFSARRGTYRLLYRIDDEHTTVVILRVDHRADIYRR

Chain of RelJ;RelK (P9WF09 whole entry, one chain of several): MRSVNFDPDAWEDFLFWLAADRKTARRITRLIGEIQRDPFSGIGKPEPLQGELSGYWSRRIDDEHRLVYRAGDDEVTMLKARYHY

B1: 3357p7 (dsDNA)
DNA 1: CCACCGTACGGACAACTTGTACCATTGTGGTACAGATTATCCGTACATCTT
DNA 2: AAGATGTACGGATAATCTGTACCACAATGGTACAAGTTGTCCGTACGGTGG
B1: binds (RelJ;RelK); binds (RelJ).

B2: 1247p7 (dsDNA)
DNA 1: GGCGTTCGGCTCGGTAAGCCGATGCTCGGCG
DNA 2: CGCCGAGCATCGGCTTACCGAGCCGAACGCC
B2: binds (RelB;RelE).

B3: 2865p7 (dsDNA)
DNA 1: AAACCTGAGACGCCGCGCACAAAGTGCGAAACC
DNA 2: GGTTTCGCACTTTGTGCGCGGCGTCTCAGGTTT
B3: binds (RelF;RelG).
